Laboratory results taken from paper PMC11408855, “The structure of the SufS–SufE complex reveals interactions driving protected persulfide transfer in iron-sulfur cluster biogenesis” (The Journal of Biological Chemistry, 2024).
Where a chain is given by its changes, count along the chain named. Numbers in names are those of the source.

B1: C51A/E107C EcSufE (unlabeled, crystallised) (natural protein, Escherichia coli)
chain: MALLPDKEKLLRNFLRCANWEEKYLYIIELGQRLPELRDEDRSPQNSIQGAQSQVWIVMRQNAQGIIELQGDSDAAIVKGLIAVVFILYDQMTPQDIVNFDVRPWFCKMALTQHLTPSRSQGLEAMIRAIRAKAAALS
notes: EcSufE of Escherichia coli, UniProt P76194, with C51A and E107C; also called SufE C51A/E107C; SufE (C51A, E107C)
B2: EcSufS, untagged (wild type) (enzyme, Escherichia coli)
chain: MIFSVDKVRADFPVLSREVNGLPLAYLDSAASAQKPSQVIDAEAEFYRHGYAAVHRGIHTLSAQATEKMENVRKRASLFINARSAEELVFVRGTTEGINLVANSWGNSNVRAGDNIIISQMEHHANIVPWQMLCARVGAELRVIPLNPDGTLQLETLPTLFDEKTRLLAITHVSNVLGTENPLAEMITLAHQHGAKVLVDGAQAVMHHPVDVQALDCDFYVFSGHKLYGPTGIGILYVKEALLQEMPPWEGGGSMIATVSLSEGTTWTKAPWRFEAGTPNTGGIIGLGAALEYVSALGLNNIAEYEQNLMHYALSQLESVPDLTLYGPQNRLGVIAFNLGKHHAYDVGSFLDNYGIAVRTGHHCAMPLMAYYNVPAMCRASLAMYNTHEEVDRLVTGLQRIHRLLG
modifications: PLP (pyridoxal 5'-phosphate) cofactor
notes: EcSufS, cysteine desulfurase SufS of Escherichia coli, UniProt P77444; Untagged version used for crystallography and with the EcSufE variants; In samples with cysteine the active site cysteine is thought to carry a persulfide; also called SufSA; SufSB
B3: BODIPY-FL-labeled T116A EcSufE in the C51A/E107C background (natural protein, Escherichia coli)
chain: B1 chain with T116A
modifications: BODIPY-FL maleimide label (labeling efficiency 60 to 80%)
notes: EcSufE of Escherichia coli, UniProt P76194, with C51A, E107C and T116A; also called T116A SufE; source: E. coli BL21(DE3)Δsuf, pET21, purified, labeled with BODIPY-FL maleimide
B4: BODIPY-FL-labeled Q121A EcSufE in the C51A/E107C background (natural protein, Escherichia coli)
chain: B1 chain with Q121A
modifications: BODIPY-FL maleimide label (labeling efficiency 60 to 80%)
notes: EcSufE of Escherichia coli, UniProt P76194, with C51A, E107C and Q121A; also called Q121A SufE; source: E. coli BL21(DE3)Δsuf, pET21, purified, labeled with BODIPY-FL maleimide
B5: BODIPY-FL-labeled Q121E EcSufE in the C51A/E107C background (natural protein, Escherichia coli)
chain: B1 chain with Q121E
modifications: BODIPY-FL maleimide label (labeling efficiency 60 to 80%)
notes: EcSufE of Escherichia coli, UniProt P76194, with C51A, E107C and Q121E; also called Q121E SufE; source: E. coli BL21(DE3)Δsuf, pET21, purified, labeled with BODIPY-FL maleimide
B6: BODIPY-FL-labeled R119A EcSufE in the C51A/E107C background (natural protein, Escherichia coli)
chain: B1 chain with R119A
modifications: BODIPY-FL maleimide label (labeling efficiency 60 to 80%)
notes: EcSufE of Escherichia coli, UniProt P76194, with C51A, E107C and R119A; also called R119A SufE; R119A EcSufE (in double mutant background); source: E. coli BL21(DE3)Δsuf, pET21, purified, labeled with BODIPY-FL maleimide
B7: BODIPY-FL-labeled T116S EcSufE in the C51A/E107C background (natural protein, Escherichia coli)
chain: B1 chain with T116S
modifications: BODIPY-FL maleimide label (labeling efficiency 60 to 80%)
notes: EcSufE of Escherichia coli, UniProt P76194, with C51A, E107C and T116S; also called T116S SufE; source: E. coli BL21(DE3)Δsuf, pET21, purified, labeled with BODIPY-FL maleimide
B8: BODIPY-FL-labeled R119K EcSufE in the C51A/E107C background (natural protein, Escherichia coli)
chain: B1 chain with R119K
modifications: BODIPY-FL maleimide label (labeling efficiency 60 to 80%)
notes: EcSufE of Escherichia coli, UniProt P76194, with C51A, E107C and R119K; also called R119K SufE; source: E. coli BL21(DE3)Δsuf, pET21, purified, labeled with BODIPY-FL maleimide

Molecular target: SufE (Escherichia coli) (UniProt P76194)
Test: fluorescence polarization
Conditions: cited from earlier work

In the case of SufS (from UniProt P77444), the Kd is given as 5000 nM.

Molecular target: B2
Test: crystal structure; 230 μM SufS, 230 μM SufE (C51A, E107C) and 2 mM Cys; sitting drop vapor diffusion, PEG2000 MME, 0.1 M KSCN, 20 °C
Conditions: both partners purified

With B1 the “stoichiometry N” value was 1.

Molecular target: the molecule itself
Test: as above
Conditions: not given

B2: binds.

Molecular target: B2
Test: fluorescence polarisation; 100 nM BODIPY-FL-labeled EcSufE titrated with EcSufS; 50 mM Mops pH 8.0, 150 mM NaCl, 0.1 mg/ml bovine serum albumin, 25 °C, 30 min; absence of cysteine; apparent KD
Conditions: both partners purified

Going from B3 to B4, the Kd rises from 2300 nM to 5900 nM (2.6-fold).

Going from B5 to B6, the Kd falls from 7000 nM to 300 nM (23-fold).

B7 and B8 are within 1.5-fold of each other in Kd: 2200 nM for the first, 1600 nM for the second.

Molecular target: B2
Test: fluorescence polarisation; 100 nM BODIPY-FL-labeled EcSufE titrated with EcSufS; 50 mM Mops pH 8.0, 150 mM NaCl, 0.1 mg/ml bovine serum albumin, 25 °C, 30 min; presence of 500 μM cysteine; apparent KD
Conditions: both partners purified

First: B3
Second: B4
The Kd of the first is 4.5-fold lower: 800 nM for the first, 3600 nM for the second. The first binds more tightly here.

B5 and B6 are the same in Kd: 500 nM for the first, 500 nM for the second.

Compared with B7, B8 is 3.4-fold lower in Kd: 3100 nM for the first, 900 nM for the second.
